The values that follow come from article PMC10996255.

In the assay the target is Recombinant human HER2 (human) (UniProt P04626). Nature of the assay: ELISA; recombinant HER2 (50 ng/well) coated in PBS pH 7.4; scFv or conjugate 250 to 0.005 nM, 4-fold dilutions in 5% skim milk in PBST, room temperature; detected by rabbit anti-His-tag antibody and HRP-linked anti-rabbit IgG. On the technique in general: In an ELISA, binding on a coated surface is turned into a signal by an enzyme label.

In general, EC50 refers to the midpoint of the concentration-response curve. On to “4D5scFv-G178-HSA (from UniProt P02768 25-609)”, for which the half-maximal effective concentration (EC50) was 1.47 nM.
